Experimental data published in article PMC6885551.

Molecular target: Salmonella FraB deglycase, wild type (Salmonella enterica)
Test: native MS

Substance: Salmonella FraB deglycase, wild type (enzyme)
- Kd: 31 to 63 nM
